Experimental data reported in patent US9023998B2, “Near infrared fluorogen and fluorescent activating proteins for in vivo imaging and live-cell biosensing” (Carnegie Mellon University, priority 2013, dated 2015).
Numbering of substitutions follows the chain as printed.

B1: dL9.5:SKC602: fluoromodule: FAP dL9.5 (SEQ. ID. NO. 3) non-covalently complexed with fluorogen SKC602 (protein)
chain: SYELTQPPSVSVSPGQTARITCSGDALPKQYTYWYQQKAGQAPVLVIYKDTERPSGIPERFSGTSSGTTATLTISGVQAEDEADYYCQSADSSGSHVFFGGGTKVTVLSGGGGPGGGSGGGSGGGSGGGSYELTQPPSVSVSPGQTARITCSGDALPKQYTYWYQQKAGQAPVLVIYKDTERPSGIPERFSGTSSGTTATLTISGVQAEDEADYYCQSADSSGSHVFFGGGTKVTVLS
modifications: non-covalent fluorogen SKC602; Fluorogen Activating Peptide (FAP) sequence
B2: dL9.5:SKC728: fluoromodule: FAP dL9.5 (SEQ. ID. NO. 3) non-covalently complexed with fluorogen SKC728 (protein)
chain: B1 chain
modifications: non-covalent fluorogen SKC728; Fluorogen Activating Peptide (FAP) sequence
B3: dL9.2:SKC602: fluoromodule: FAP dL9.2 (SEQ. ID. NO. 2) non-covalently complexed with fluorogen SKC602 (protein)
chain: B1 chain with H96Y, A199V, H225Y
modifications: non-covalent fluorogen SKC602; Fluorogen Activating Peptide (FAP) sequence
B4: dL9.2:SKC728: fluoromodule: FAP dL9.2 (SEQ. ID. NO. 2) non-covalently complexed with fluorogen SKC728 (protein)
chain: B1 chain with H96Y, A199V, H225Y
modifications: non-covalent fluorogen SKC728; Fluorogen Activating Peptide (FAP) sequence

Columns and labels:
[1] = test system: dL9 (SEQ. ID NO: 1); assay: Fluorescence activation of SKC638 by purified dL9; assay type: biochemical; conditions: molar excess of purified dL9, excitation 630 nm, non-normalized spectrum
Description: The non-normalized emission spectrum shown (black, solid) was acquired using a Quantamaster fluorometer (PTI) by excitation through monochromators set at 630 nm. The primary peak near 730 nm is likely due to contaminating SKC602, while a second, smaller peak is clearly observed near 823 nm, and is likely contributed by the extended chromophore of SKC638.

[2] = Spectral properties of fluoromodules (Table 1); assay type: physicochemical; conditions: fluoromodule (FAP:fluorogen complex)
Description: The spectral properties of fluoromodules assembled from combinations of dL9.2 (SEQ. ID. NO. 2) and dL9.5 (SEQ. ID. NO. 3) with SKC602 and SKC728 are listed in Table 1. dL9.2 (SEQ. ID. NO. 2) is an asymmetric light chain (VL-VL) tandem dimer based upon dL9 (SEQ. ID. NO. 1), hosting the V70A mutation on the N-terminal light chain. dL9.5 (SEQ. ID. NO. 3) is a symmetric light chain (VL-VL) tandem dimer based upon dL9.2 (SEQ. ID. NO. 2) with the V70A mutation propagated to C-terminal chain, and an additional Y96H mutation that is present on both chains. These genetically encoded fluorescent labels yield good brightness in the far-red/NIR spectral regime when combined with their cognate fluorogens.
The dL9.2:SKC602 (SEQ. ID. NO. 2:SKC602) fluoromodule (black, solid) emits at longer wavelengths than existing biliverdin-binding infra-red fluorescent proteins, while retaining the ability to be excited effectively by common illumination sources such as the HeNe laser line (633 nm) as well as lamps equipped with Cy5™-compatible excitation filters. Spectra of dL9.5 (SEQ. ID. NO. 3) bound to SKC602 are highly similar. Excitation and emission spectra are normalized to the highest value within each data set.
(§1) Relative fluorescence quantum yield assessments were conducted via the gradient method (Williams, Winfield and Miller, Relative Fluorescent Quantum Yield Using a Computer-controlled Luminescence Spectrometer, Analyst, vol. 108, 1067-1071 ([…]) against reference dyes Cy5.18 in PBS, pH 7.4 (Mujumdar, et al., Cyanine Dyes Labeling Reagents: Sulfoindocyanine Succinimidyl Esters, Bioconjugate Chemistry, Vol. 4, No. 2, 105-111 (1993) and oxazine-1 in absolute ethanol (Worth, et al., Integrating Sphere Setup for the Traceable Measurement of Absolute Photoluminescence Quantum Yields in the Near Infrared, Analytical Chemistry, 84, 1345-1352 (2012). Fluoromodules were formed by combining a quantity of fluorogen (SKC602 or SKC728) at least 20-fold above the fluoromodule dissociation constant with a molar excess of purified FAP (dL9.2 (SEQ. ID. NO. 2) or dL9.5 (SEQ. ID. NO. 3)). The solutions were incubated at 4° C. with rocking for at least one hour prior to measurements in order to ensure complete complex formation. The optical path length for all sample measurements was 1.00 cm, and all solutions were at room temperature during measurement. Absorbance measurements were taken using a PerkinElmer Lambda 45 UV/VIS spectrometer, while fluorescence emission spectra were measured using a Quantamaster fluorometer equipped with dual excitation and emission monochromators (Photon Technology International). Fluorescence emission was integrated using Spekwin32 (Menges 2013, http://www.effemm2.de/spekwin/spekwin_copyright/de.html. Linear fits and quantum yield ratios were calculated in Microsoft Excel 2013.

[3] = Relative fluorescence quantum yield of fluoromodules, gradient method; assay type: physicochemical; conditions: relative to Cy5.18 in PBS pH 7.4 and oxazine-1 in ethanol; molar excess of FAP; room temperature
Experimental: as §1

[4] = test system: HEK293 cells expressing dL9.5; assay: Confocal imaging of HEK293 cells expressing dL9.5 in various cellular contexts; assay type: cell-based; conditions: cytoplasmic dL9.5-eGFP, 200 nM SKC602, fluorogen not washed away
Description: The expressed construct was imaged using an Andor Revolution XD spinning disk confocal (GFP 488:525/50, dL9.5 (SEQ. ID. NO. 3) 640:685/70 AND 640:794/160, 60×1.49 NA oil immersion objective) and the results are shown in FIG. 5. […] The fluorogen was not washed away prior to imaging.
Imaging conditions were similar to those described for obtaining FIG. 5.
CYTOPLASM. HEK293 cells were transfected with, and stably expressing the pCYdL9.5eGFP vector, were thawed from a cryostock and maintained in DMEM/10% FBS for four passages prior to fluorescence imaging procedures. Immediately prior to imaging, growth media was exchanged for HBSS (pH 7.4) supplemented with SKC602 (200 nM final concentration). The cells were allowed to recover at 37° C. with 5% CO2 for 20-30 minutes, and fluoromodule activity under in vivo conditions within the cytoplasm was imaged using an Andor Revolution XD spinning disk confocal microscope (60×1.49 NA oil immersion objective, excitation at 640 nm, emission in far-red: 685/70 filter, and NIR: 794/160 filter). The same cells were also imaged for eGFP activity (excitation at 488 nm, emission via 525/50 nm filter). […] In accordance with the fluoromodule emission spectrum shown in FIG. 2, this emission filter allows the microscope camera to detect a large portion of the fluoromodule emission, and consequently, the observed signal appears brighter. One must note that intensities cannot be directly compared between channels, due to considerations non-exclusively including: differences in excitation light intensities, exposure and capture times, the transmission profile of each emission filter, and the quantum efficiency of the iXON3 DU897 (back-illuminated) camera across the range of emitted wavelengths. An evenly distributed fluorescence signal is observed in these cells, with no bright foci that would indicate protein aggregation, and the fluoromodule signal intensity scales with that of eGFP.
PLASMA MEMBRANE. […]

[5] = Fluoromodule activity/stability with respect to pH; assay type: physicochemical; conditions: for Longer-term stability of fluorescence across pH: 24 hours
Experimental: […] 4. The averages of five replicates per pH increment are shown as filled circles; bars denote extreme values within each replicate set, and normalization is to the maximum value within all data points. […] Stability of this degree allows the fluoromodule probe to be useful in an extremely wide range of cellular contexts.
A set of titrating buffers occupying pH values from 2.0 to 10.0 in 0.5 unit increments was prepared at room temperature in accordance to a published recipe (Carmody, An Easily Prepared Wide Range Buffer Series, Journal of Chemical Education, Vol. 38, No. 11, pp. 559-560 (1961)) adjusted to accommodate sodium chloride at a concentration of 300 mM. Fluoromodules consisting of dL9.5 bound to SKC602 were prepared by addition of 16.7 μL HPLC-purified SKC602 (300 μM stock in EtOH/5% acetic acid) to 1.30 mL Buffer (10.0 mM Tris, pH 8.0 at RT, supplemented with 300 mM NaCl). Purified dL9.5 was added (1.5 mL, approximately 50 μM stock) and incubated at 4° C. for 90 minutes. […] Fluorescence was then measured using a TECAN Infinite M1000 plate reader with 695/10 nm excitation and 735/10 nm emission windows at a gain of 111. Data was processed in Microsoft Excel 2010: The mean fluorescence intensity value for each pH increment was calculated, and all mean values were divided by the maximum mean intensity in order to normalize fluorescence intensities measured across the entire pH range to a value of 1.0. Extreme values within each set of five replicates calculated to a percentage of the mean for each pH increment in order to indicate the degree of variation across replicate reads.

Molecule	Emission peak contributed by extended chromophore [1] [nm]	Brightness (ε · Φ · 1 × 10^−3) [2]	Em (nm), emission maximum [2] [nm]	Ex (nm), excitation maximum [2] [nm]	ε [2] [M⁻¹ cm⁻¹]	Φ (fluorescence quantum yield) [3]	NIR fluorescence in cytoplasm of HEK293 cells [4]	Fluorescence stability across pH range ([5]; Carmody buffer with 300 mM NaCl, pH 2-10, after three hours)	Change of mean fluorescence in each pH solution over one hour ([5]; pH 2.0-10.0, reads every minute for one hour) [%]	Longer-term stability of fluorescence across pH [5]
CN(C)c1ccc(/C=C/C=C/C(=C2C=CC(=[N+](C)C)C=C2)c2ccc(N(C)C)cc2)cc1 [SKC638]	~823	–	–	–	–	–	–	–	–	–
B1	–	20	731	702	120000	0.17	produces NIR fluorescence	exceptional stability across a broad pH range	≤ 3	–
B2	–	23	733	703	98000	0.23	–	–	–	–
B3	–	20	731	702	120000	0.17	–	–	–	remained stable over 24 hours
B4	–	19	733	703	90000	0.21	–	–	–	remained stable over 24 hours
